Test results published in the supplement of paper PMC7125110.
± gives the standard error. For some of these results: Fewer inactive variants are shown than the library holds.

B1: glmS ribozyme (parent)
chain: AUAAAAGCGCCAGAACUACAGAAAUGUAGUUGACGAGGAGGAGGUUUAUCGAAUUUUCGGCGGAUGCCUCCAAA

What was measured:
Settings in all cases: with glucosamine-6-phosphate
glucosamine-6-phosphate [1] = variants of: B1; test: kcat; higher = faster cleavage; RNA array
In short: (§1)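 In situ transcription by E. coli RNA polymerase produced barcoded ribozyme variants on sequenced MiSeq chips, and a hybridised Cy3 probe tracked them at 37 °C. Glucosamine-6-phosphate was flowed in at 40 μM to 10 mM in HEPES/KCl/Mg(OAc)2 buffer. kcat and KM were taken from weighted Michaelis–Menten fits of kobs values from exponential decay fits.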

glucosamine-6-phosphate [2] = variants of: B1; test: KM; higher = weaker cofactor use; RNA array
In short: as §1

glucosamine-6-phosphate [3] = variants of: B1; test: self-cleavage kobs at 640 uM GlcN6P; higher = faster cleavage; RNA array
In short: as §1

glucosamine-6-phosphate [4] = variants of: B1; test: self-cleavage kobs at 2500 uM GlcN6P; higher = faster cleavage; RNA array
In short: as §1

glucosamine-6-phosphate [5] = variants of: B1; test: self-cleavage kobs at 10000 uM GlcN6P; higher = faster cleavage; RNA array
In short: as §1

glucosamine-6-phosphate [6] = variants of: B1; test: self-cleavage kobs at 40 uM GlcN6P; higher = faster cleavage; RNA array
In short: as §1

glucosamine-6-phosphate [7] = variants of: B1; test: self-cleavage kobs at 160 uM GlcN6P; higher = faster cleavage; RNA array
In short: as §1

Variant	kcat (glucosamine-6-phosphate [1]) [s⁻¹]	KM (glucosamine-6-phosphate [2]) [mM]	self-cleavage kobs at 640 uM GlcN6P (glucosamine-6-phosphate [3]) [s⁻¹]	self-cleavage kobs at 2500 uM GlcN6P (glucosamine-6-phosphate [4]) [s⁻¹]	self-cleavage kobs at 10000 uM GlcN6P (glucosamine-6-phosphate [5]) [s⁻¹]	self-cleavage kobs at 40 uM GlcN6P (glucosamine-6-phosphate [6]) [s⁻¹]	self-cleavage kobs at 160 uM GlcN6P (glucosamine-6-phosphate [7]) [s⁻¹]
AUAAAAGCGCCAUAACUACAGAAAUGUAUUUGACGAGGAGGAGGUUUAUCGAAUUUUCGGCGGAUGCCUCCAAA	0.000324 ± 4.8e-05	3.43 ± 1	4.23e-05 ± 9.2e-06	0.000161 ± 2.1e-05	0.000234 ± 2.3e-05	–	–
AUAAAAGCGCCAUAACUACAGAAAUGUAGUUGACGAGGAGGAGGUUUAUCGAGUUUUCGGCGGAUGCGUCCAAA	4.16e-05 ± 3.1e-06	–	–	4.16e-05 ± 1.5e-05	–	–	–
AUAAAAGCGCCAUAACUACAGAAAUGUAGUUGACGAGGAGGAGGUUUAUCGAAUUUUCGGCGGCUGCCUCCAAA	1.02e-05 ± 3e-06	–	–	–	–	–	–
AUAAAAGCGCCACAACUACAGAAAUGUAGUUGACGAGGAGGAGGUUUAUCGAAUUCUCGGCGGAUGCCUCCAAA	2.35e-05 ± 6.9e-08	1.1 ± 0.019	–	–	2.11e-05 ± 8e-06	< 1e-05	–
AUAAAAGCGCCAUCACUACAGAAAUGUAGUUGACGAGGAGGAGGUUUAUCGAAUUUUCGGCGGAUGCCUCCAAA	0.00021 ± 2.8e-05	8.96 ± 1.9	–	4.71e-05 ± 9.7e-06	0.00011 ± 2e-05	–	–
AUAAAAGCGCCAUAACUACAGAAAUGUAGUUCACGAGGAGGAGGUUUAUCGAAUUUUCGGCGGAUGCCUCCAAA	0.000465 ± 0.00015	–	7.27e-05 ± 1e-05	0.000121 ± 1.6e-05	0.000328 ± 2.8e-05	–	–
AUAAAAGCGCCAUAACUACAGAAAUGUAGUUAACGAGGAGGAGGUUUAUCGAAUUUUCGGCGGAUGCCUCCAAA	0.00326 ± 0.00047	3.53 ± 0.71	0.000465 ± 5e-05	0.00124 ± 0.00013	0.00258 ± 0.00026	4.41e-05 ± 7.3e-06	0.000153 ± 1.8e-05
AUAAAAGCGCCAUAACUACAGAAAUGUAGUUGACGAGGAGGAGGUUUAUCGAGUUUUCGGCGGAUGCCUCCAAA	0.0022 ± 0.00047	4.46 ± 1.3	0.00029 ± 3.4e-05	0.000631 ± 9.5e-05	0.00168 ± 0.0002	2.14e-05 ± 9.7e-06	8.17e-05 ± 1e-05
AUAAAAGCGCCAUAACUACAGAAAUGUAGUUGACGAGGAGGAGGUUUAUCGAUUUUUCGGCGGAUGCCUCCAAA	0.00139 ± 4.1e-05	3.55 ± 0.19	0.000213 ± 3.9e-05	0.000584 ± 0.00011	0.00103 ± 0.00011	–	5.58e-05 ± 2e-05
